Experimental data published in patent US20080139466A1.

Target: human TSH receptor on stably transfected CHO cells (JP09 cells) (human) (UniProt P16473)
Assay: cell-based or functional assay

Chain of UniProt P16473 (P16473 21-764): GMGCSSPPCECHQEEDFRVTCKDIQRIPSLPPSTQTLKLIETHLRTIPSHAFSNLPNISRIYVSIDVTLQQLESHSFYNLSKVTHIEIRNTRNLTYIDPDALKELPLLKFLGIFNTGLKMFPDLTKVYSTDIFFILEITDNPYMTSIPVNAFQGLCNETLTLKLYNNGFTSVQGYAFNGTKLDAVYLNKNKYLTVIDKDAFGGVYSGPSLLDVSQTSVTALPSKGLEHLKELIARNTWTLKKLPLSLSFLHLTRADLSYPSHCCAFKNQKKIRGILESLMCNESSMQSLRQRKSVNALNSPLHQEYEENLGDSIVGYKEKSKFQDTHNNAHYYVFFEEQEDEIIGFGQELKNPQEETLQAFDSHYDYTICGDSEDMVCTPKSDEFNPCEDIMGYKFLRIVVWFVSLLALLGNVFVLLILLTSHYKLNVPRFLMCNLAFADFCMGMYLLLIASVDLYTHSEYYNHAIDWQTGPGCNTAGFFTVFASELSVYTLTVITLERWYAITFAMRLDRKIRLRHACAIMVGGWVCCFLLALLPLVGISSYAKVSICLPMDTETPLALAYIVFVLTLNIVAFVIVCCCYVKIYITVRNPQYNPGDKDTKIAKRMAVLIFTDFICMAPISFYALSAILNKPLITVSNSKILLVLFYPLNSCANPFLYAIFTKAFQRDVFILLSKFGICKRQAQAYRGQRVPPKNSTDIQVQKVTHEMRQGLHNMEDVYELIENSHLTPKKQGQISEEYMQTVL

Row | cAMP production (cAMP released into medium, RIA) by JP09 cells | Substance
1 | 70 pmol/mL | feline thyrotropin yoked polypeptide (β-subunit-CTP-α-subunit) (ligand)
2 | 25 pmol/mL | feline thyrotropin (fTSH) α/β heterodimer (from UniProt Q52R91 25-120; Q52R90 21-132) (ligand)
